Source: US8404652B2, “DNA-binding protein YB-1-containing collagen accumulation inhibitors” (Sumitomo Chemical Company, Limited, priority 2000, dated 2013)

Assays:
Type in all cases: cell-based
[1] = test system: promoter region of the human type-I collagen α2 strand gene (binding reporter vector); test: CAT reporter assay of test substances, binding reporter vector-transduced fibroblast
Experimental: (§1) 2 ml of an angelica extract [ICHIMARU-PHARCOS, PHARCOLEX (trade mark of ICHIMARU-PHARCOS), angelica] and 2 ml of a basswood extract [ICHIMARU-PHARCOS, PHARCOLEX (trade mark of ICHIMARU-PHARCOS), linden] were freeze-dried and each was combined with 1 ml of dimethyl sulfoxide (hereinafter referred to as DMSO) per 50 mg of the freeze-dried material, whereby obtaining an angelica extract sample and a linden extract sample.
(§2) A normal human fetal dermal fibroblast was inoculated in a population of 1×10^6 cells in a 60-mm dish and incubated in D-MEM (+) overnight at 37° C. under 5% CO2 atmosphere, and then the culture medium was replaced with D-MEM (−). On the other hand, 100 μl of D-MEM (−) was combined with either of 2 μg of the binding reporter vector DNA or 2 μg of the non-binding reporter vector DNA obtained in Example 2 (3), and the mixture was allowed to stand at room temperature for 40 minutes (Solution 1). To 100 μl of MEM(−), 4.5 μl of Lipofectine (Gibco, Catalog No.18292-011) was added and the mixture was allowed to stand at room temperature for 40 minutes (Solution 2). Then Solution 1 and Solution 2 were mixed and allowed to stand at room temperature for 10 minutes, and then combined with 2 ml of D-MEM (−) and mixed. This mixture was added to the normal human fetal fibroblast described above, which was then incubated at 37° C. under 5% CO2 atmosphere for 6 hours. […]

[2] = test system: non-binding reporter vector; test: CAT reporter assay of test substances, non-binding reporter vector-transduced fibroblast; settings: normal human fetal dermal fibroblast; sample 1 μg freeze dried material/ml, IFN-γ 100 U/ml; 40 hours; negative control of binding reporter cell = 1.0
Experimental: as §1, §2

[3] = test system: human type-I collagen α2 strand mRNA; test: Type-I collagen α2 strand mRNA quantity (northern blotting) with test substances; settings: extract 50 μg lyophilized sample per ml, INF-γ 100 U/ml
Experimental: A normal human fetal dermal fibroblast was inoculated in a population of […] in a 100-mm dish and incubated in D-MEM (+) overnight at 37° C. under 5% CO2 atmosphere. This cell was supplemented with the angelica extract sample prepared in Example 7 (2) at 50 μg lyophilized sample per ml medium and incubated further for 24 hours. In a case of negative control, the angelica extract sample was replaced with DMSO (added at 0.1% in the medium).
In a case of positive control, the angelica extract sample was replaced with INF-γ (added at 100 U/ml in the medium). The cell thus incubated was washed twice with a PBS, and used to prepare a total RNA similarly to Example 1 (1). […] The radioactivity of the air-dried filter was determined using BAStation.
On the other hand, 10 μg of the total RNA was subjected to an electrophoresis on the gel described above which contained 0.5 μg/ml of ethidium bromide (Gibco BRL, Catalog No.15582-018) and the fluorescent intensity of 28S ribosome RNA was quantified using Luminescent Image Analyzer LAS-1000 plus (FUJI FILM) and Image Gauge Ver 3.12 (FUJI FILM). The quantity of the type-I collagen α2 strand mRNA relative to the 28S ribosome RNA was calculated in accordance with the following equation. Type-I collagen α2 strand mRNA quantity=Radioactivity of band of about 5.8 kb/fluorescent intensity of 28S ribosome RNA […]

[4] = test system: DNA-binding protein of invention (YB-1) fused with GFP (pCMX-YB-1-GFP); test: Fluorescent microscope examination of migration of YB-1-GFP into the nucleus; settings: human fibroblast transduced with pCMX-YB-1-GFP; 4 hours contact; IFN-γ 100 U/ml as positive control
Experimental: 100 ng of YB-1/RSV, 10 pmol of an oligonucleotide consisting of the nucleotide sequence represented by SEQ ID NO:.15, 10 pmol of an oligonucleotide consisting of the nucleotide sequence represented by SEQ ID NO:.16, 5 μl of the buffer included in KOD-Dash (TOYOBO, Catalog No.RR002A), 5 μl of Mg^2+ solution, 5 μl of dNTP mixture, 1 μl of KOD-Dash and distilled water were mixed to prepare 50 μl in total of a PCR solution, which was used to perform a PCR. The condition of the PCR involved an incubation at 94° C. for 2 minutes, followed by 35 cycles, each cycle involving the incubations at 94° C. for 15 seconds, 60° C. for 30 seconds and then 68° C. for 1 minute. After the PCR, the PCR solution was digested with HindIII and Pm1I and subjected to an ethanol precipitation to recover a DNA (hereinafter a DNA obtained as a residue is referred to as a YB-1DNA.). […] The nucleotide sequence of the plasmid DNA thus obtained was analyzed, and a plasmid having a nucleotide sequence in which a GFP amino acid sequence was encoded downstream of the amino acid sequence of the DNA-binding protein of the present invention with its reading flame being continued was selected. […]

CC(O)C(O)/C=C/C=C\CC/C=C/C(=O)NCC(C)(C)O (stereo not drawn) [Compound A]
relative CAT activity ([1]; binding reporter vector-transduced normal human fetal dermal fibroblast, 8 μM in medium, methanol negative control = 1.0): 0.7

B1: Positive control: interferon-γ (Roche) added at 100 U/ml in the medium (protein, UniProt P01579 24-161, looked up)
Interferon gamma: QDPYVKEAENLKKYFNAGHSDVADNGTLFLGILKNWKEESDRKIMQSQIVSFYFKLFKNFKDDQSIQKSVETIKEDMNVKFFNSNKKKRDDFEKLTNYSVTDLNVQRKAIHELIQVMAELSPAAKTGKRKRSQMLFRG
Relative CAT activity, non-binding reporter vector-transduced cell [2]: 0.9
Relative transcription level of type-I collagen gene (α2 strand mRNA level) ([3]; Table 5, TGFβ column prints Absent (method: TGFβ 10 ng/ml), negative control with TGFβ = 1.0): 0.5
Relative transcription level of type-I collagen gene (α2 strand mRNA level) ([3]; normal human fetal dermal fibroblast, TGFβ absent, 24 hours, negative control = 1.0): 0.5
localisation of YB-1-GFP fluorescence (cytoplasmic / intranuclear) [4]: no cytoplasmic fluorescence
Relative CAT activity, binding reporter vector-transduced cell ([1]; normal human fetal dermal fibroblast, sample 1 μg freeze dried material/ml, IFN-γ 100 U/ml, 40 hours, negative control = 1.0): 0.6
